The results in this text go back to patent US20230039279A1, “INFLAMMATION-RESPONSIVE ANTI-INFLAMMATORY HYDROGELS” (Nanyang Technological University, priority 2019, published 2023).

Entries after “also recorded” stand apart in the source; their conditions may differ.

The target of data set [1] is T1, MMP-9 (Homo sapiens, UniProt P14780). Description: MMP-9 cleavability of hybrid hydrogels (released particles seen under optical microscope). The note with it: 3 μg/ml MMP-9 in PBS, 37° C., 20 hours. Set-up: purchased Merck. Type of data set: biochemical. On the procedure:
Each hybrid hydrogel of 20 μL volume in a 500 μL Eppendorf tube was incubated at 37° C. with 3 μg/ml of MMP-9 (83 kDa, Merck) in PBS buffer (DPBS/modified, without calcium and magnesium, HyClone™). In a control experiment, another hybrid hydrogel with the same composition was immersed in PBS buffer without MMP-9. After 20 hours of incubation, the medium surrounding the hybrid hydrogel was sampled onto a cover slip and observed under an optical microscope (Olympus CKX53SF, Japan) to inspect for the presence of released particles.
The selected concentration of MMP-9 is within the range of MMP-9 expression in clinical wound fluids and synovial fluids of patients with rheumatoid arthritis and osteoarthritis [Ladwig, G. P. et al. Wound Repair and Regeneration 10(1) 26-37 (2002); Li, Z. et al. Journal of Diabetes and its Complications 27(4) 380-382 (2013)]. In a typical successful cleavage by MMP-9, the photographs of vials B1 and B2 in FIG. 2 show the appearance of a hybrid hydrogel, which had the same composition as that in vial A1, after prolonged exposure to a buffer with and without MMP-9 respectively. […] The optical microscope image C1 verified the presence of ibu-PLGA particles in the resulting liquid mixture of vial B1 confirming the successful digestion of this hybrid hydrogel by MMP-9. In contrast, MMP-9-free PBS buffer added after gelation was observed as a clear liquid phase in vial B2. The optical microscope image C2 also confirmed the absence of any released lbu-PLGA particles in vial B2.
Target sequence in this assay (P14780 107-707 limits assumed): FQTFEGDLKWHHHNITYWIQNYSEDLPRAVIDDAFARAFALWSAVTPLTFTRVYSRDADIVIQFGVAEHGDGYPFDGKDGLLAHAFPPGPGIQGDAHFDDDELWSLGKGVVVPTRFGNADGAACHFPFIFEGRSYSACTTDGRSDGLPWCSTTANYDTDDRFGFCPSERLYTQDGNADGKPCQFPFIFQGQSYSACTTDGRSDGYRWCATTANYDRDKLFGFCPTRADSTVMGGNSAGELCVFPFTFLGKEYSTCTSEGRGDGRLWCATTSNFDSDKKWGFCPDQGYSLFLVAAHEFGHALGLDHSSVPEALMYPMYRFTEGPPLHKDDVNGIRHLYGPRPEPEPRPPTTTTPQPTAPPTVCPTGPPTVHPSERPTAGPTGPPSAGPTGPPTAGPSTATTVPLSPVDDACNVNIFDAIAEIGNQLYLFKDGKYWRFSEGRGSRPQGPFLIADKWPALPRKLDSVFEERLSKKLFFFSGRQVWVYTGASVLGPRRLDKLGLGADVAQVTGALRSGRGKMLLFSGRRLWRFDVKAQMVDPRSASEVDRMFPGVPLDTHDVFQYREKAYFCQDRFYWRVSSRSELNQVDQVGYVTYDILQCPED

A short description of data set [2]: Tube-inversion gelation screening of peptide crosslinkers with PEG-VS and ibu-PLGA particles. The format is physicochemical. On the procedure: Peptide-crosslinked hydrogels were prepared by reacting 4-arm poly(ethylene glycol)-vinyl sulfone (PEG-VS) (20 kDa, Sigma Aldrich, St. Louis, Mo., USA) with bis-cysteine peptides (Genscript, Hong Kong) in stoichiometric ratio. Each precursor was dissolved in either triethanolamine (TEOA) buffer (0.3M) or PBS/NaOH buffer (pH=10). Typically, to prepare 117 μL of peptide-crosslinked hydrogels with 4.2% (w/v) PEG content, 5 mg of PEG-VS was dissolved in 100 μL of a buffer solution in a glass vial and mixed with a stoichiometric amount of a peptide crosslinker dissolved in 17 μL of the same buffer solution. Hydrogels with 4.2% (w/v) PEG content were evaluated in the preliminary screening of peptide crosslinkers. Hydrogels with 1.7% (w/v) PEG content were used in all subsequent in vitro and in vivo experiments. To form hybrid hydrogels consisting of PLGA particles (with or without ibuprofen) embedded in peptide-crosslinked hydrogels, the aforementioned precursors were dissolved separately in a buffer solution containing suspended PLGA particles at a concentration of 5% (w/v).
To identify an optimal peptide crosslinker for GEL-iP, we performed qualitative screening of 8 peptide sequences (Table 3 and FIG. 14) by evaluating the influence of substrate and spacer choices on the gelation and cleavability of hybrid hydrogels. In addition, buffers in which gelation occurred was also investigated because their environmental pH might affect the deprotonation of thiols and subsequently influence the crosslinking process. For each combination of substrate, spacer and buffer, the feasibility of gelation was visually inspected via a tube-inversion method. A stoichiometric amount of a peptide crosslinker was added to a glass vial containing a mixture of PEG-VS solution and suspended ibu-PLGA particles. In a parallel experiment, another vial with the same mixture composition, but without the peptide crosslinker of interest, was used as a control. The two vials were inverted at regular intervals until the mixture in one vial stopped flowing despite gravity indicating successful gelation. An example of the successful gelation of a typical hybrid hydrogel was captured in photographs of glass vials A1 and A2 (FIG. 2). […] This solid white appearance resulted from the white ibu-PLGA particles. In the absence of any peptide crosslinker, the precursor mixture in the control vial A2 remained free-flowing, indicating absence of gelation.

Data set [3] has as its target T1, MMP-9. Description: Protease specificity of peptide anchor (MMP-9 versus Cathepsin B and HNE). The format is biochemical. The source says: A) The cumulative liberation of ibuprofen (LIbu) increased corresponding to the increase in the MMP-9 concentrations. Absence of diffusion-driven basal release in the absence of MMP9 protease (bottom line). B) The specificity of GPRSLSGRRCG (SEQ ID NO: 20) sensitivity to MMP-9 compared to Cathepsin B and HNE. Error bars represent standard error of the means of n=4 replicates.
FIG. 9 supports the hypothesis that protease-sensitive drug release can be achieved from an ibuprofen-conjugated PEG hydrogel upon exposure to clinically relevant protease concentration of 1 ug/ml. […] LC-MS analysis confirmed the presence of the liberated ibuprofen bearing fragment (ibu-GPQG, LC peak at elution time of 14.6 min, MS peak at m/z=546.20) in the supernatant collected after 2 days of hydrogel exposure to MMP9 solution (FIG. 9B). In contrast, this peak is absent from the supernatant collected when the hydrogel was exposed to a control buffer without MMP9. Since the concentration of active MMP9 in human wound fluid falls within the range of 0.3-4.8 μg/ml, our data in FIG. 10A support the feasibility of drug release at a clinically relevant protease concentration.
Target sequence in this assay (P14780 94-707): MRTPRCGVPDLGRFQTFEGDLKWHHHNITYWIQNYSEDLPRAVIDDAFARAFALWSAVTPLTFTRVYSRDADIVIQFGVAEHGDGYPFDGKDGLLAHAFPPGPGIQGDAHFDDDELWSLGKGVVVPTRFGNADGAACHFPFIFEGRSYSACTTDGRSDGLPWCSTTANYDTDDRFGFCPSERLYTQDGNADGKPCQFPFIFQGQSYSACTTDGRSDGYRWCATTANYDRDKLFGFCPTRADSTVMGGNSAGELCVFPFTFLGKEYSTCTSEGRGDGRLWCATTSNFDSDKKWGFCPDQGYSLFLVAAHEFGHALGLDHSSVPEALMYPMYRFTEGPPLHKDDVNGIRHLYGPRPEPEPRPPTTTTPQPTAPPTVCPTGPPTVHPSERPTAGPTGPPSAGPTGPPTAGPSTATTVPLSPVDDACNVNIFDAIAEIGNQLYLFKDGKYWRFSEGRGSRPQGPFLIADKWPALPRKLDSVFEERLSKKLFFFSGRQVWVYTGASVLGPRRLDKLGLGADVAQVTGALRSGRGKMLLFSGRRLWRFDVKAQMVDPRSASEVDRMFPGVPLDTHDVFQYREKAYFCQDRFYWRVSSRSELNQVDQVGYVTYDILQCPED

Data set [4] relates to MMPs. As to the kind of experiment: PMA skin inflammation mouse model, MMP activity by MMPSense fluorescent imaging. Type of data set: in vivo. The note with it: 24 hours after subcutaneous PMA injection. On the procedure:
(§1) We established a mouse model of skin inflammation using phorbol 12-myristate 13-acetate (PMA) as a stimulant (FIG. 12A) which could induce the upregulation of MMPs captured by MMPSense probe. At the PMA injection sites 24 hours post PMA injection, we observed a red area whose extent was associated with the increase in PMA amounts injected (FIG. 12B). […] In addition, there was a basal of amount of MMP which generated the lowest fluorescent signal at PMA-free PBS buffer injection site. Thus, as more PMA was subcutaneously injected, the fluorescent intensity rose; and more importantly this increase in signal intensity correlated with the extent of the red area on the dorsal side of mice. Protein expression was also studied as skin tissue at the PMA injection sites were retrieved for MMP-9 quantification using ELISA kit (FIG. 12E). […] Overall, PMA subcutaneous injection with increasing amounts could induce subcutaneous inflammation with increasing levels of severity, resulting in more MMP-9 secretion.

Data set [5] has as its system MMP-9. Description: PMA skin inflammation mouse model, MMP-9 quantification in skin tissue by ELISA. Type of data set: in vivo. The note with it: skin tissue at injection site. On the procedure: as §1
A general note: In an ELISA, binding on a coated surface is turned into a signal by an enzyme label.

Data set [6] has as its target T1, MMP-9. Description: Degradation of plural protease-cleavable hydrogel, MMP-9 alone. Type of data set: biochemical. On the procedure:
(§2) A) Schematic of the mechanism of dual protease-responsive combinational hydrogel system. B) Photographs show the cleavability of H2-M2 combinational hydrogels over 24 hours (n=3). (i) Control, (ii) With HNE protease; (iii) With MMP-9 protease; and (iv) With both HNE and MMP-9 proteases. C) Quantification of the average number of PLGA particles released from combinational hydrogels in the presence of zero, single or dual proteases over 24 hours (n=3). Error bars represent s.e.m of n=3 replicates. p-values were determined by one-way ANOVA with Tukey post-hoc analysis. (***) and (ns) denote p≤0.001 and p≥0.05 (not significant) respectively.
Target sequence in this assay (P14780 94-707): as above

Data set [7] deals with RAW 264.7 murine macrophages. As to the kind of experiment: WST-1 relative metabolic activity of macrophages treated with hydrogel releasates. Type of data set: cell-based. The note with it: 0.6 mg/mL freely dissolved drug, equivalent dosage; 72 hours treatment. On the procedure: RAW 264.7 murine macrophages were cultured in high glucose DMEM (Gibco Laboratories) supplemented with 10% FBS (Gibco Laboratories), and 1% penicillin/streptomycin (Gibco Laboratories) at 37° C. in 5% CO2 atmosphere. RAW 264.7 macrophages at passages of 20-30 were seeded in 96-well plates (Corning®) at an initial seeding density of 2×10^4 cells/well and incubated at 37° C. for 24 hours. A volume of 100 μL of each hybrid hydrogel (GEL-iP and scrGEL-iP) fabricated with 1.7% (w/v) of PEG and 5% (w/v) of ibuprofen-loaded PLGA microparticles was incubated in 500 μL of phenol red-free DMEM (Gibco Laboratories) culture medium for 2 hours in the presence and absence of 3 μg/ml of MMP-9 (FIG. 4A). […] Afterwards, the releasates were removed from the treated macrophages; and the in vitro metabolic activity of treated cells was evaluated using WST-1 cell proliferation assay (Abcam) as per manufacturer's protocol. […] A volume of 100 μL of this medium was then transferred into a new 96-well plate; and its absorbance at 450 nm and 690 nm was recorded using a microplate reader (SpectraMax M5). To calculate relative metabolic activity, all the absorbance values at 450 nm were subtracted by the values at the reference wavelength of 690 nm and the background absorbance to achieve corrected absorbance values. Afterward, the relative metabolic activity was calculated as follows: […]

The target of data set [8] is T2, HNE (Homo sapiens, UniProt P08246).
T2 sequence (P08246 30-267): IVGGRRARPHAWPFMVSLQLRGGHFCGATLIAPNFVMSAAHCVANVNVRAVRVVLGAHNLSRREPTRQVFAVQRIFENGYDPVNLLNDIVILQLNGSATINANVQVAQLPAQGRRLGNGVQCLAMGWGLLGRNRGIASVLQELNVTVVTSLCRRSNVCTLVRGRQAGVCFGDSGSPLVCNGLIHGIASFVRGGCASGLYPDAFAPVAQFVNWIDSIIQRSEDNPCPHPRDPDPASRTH
As to the kind of experiment: Degradation of plural protease-cleavable hydrogel, HNE alone. Type of data set: biochemical. On the procedure:
as §2

In the case of “GCRR-GPQG↓IWGQ-RRCG (GCRRGPQGIWGQRRCG; GCRR-GPQGIWGQ-RRCG) [peptide (4), spacer GCRR]”, the “cleavability of hybrid hydrogel crosslinked with the peptide by MMP-9” value (from here on “cleavability”) in data set [1] is reported as “could be digested by MMP-9; also recorded: successful hydrogel cleavage by MMP-9”.

As to “GCRR-AVRW↓LLTA-RRCG (GCRRAVRWLLTARRCG; GCRR-AVRWLLTA-RRCG) [peptide (3)]”, the “cleavability” value in data set [1] is “not cleaved”. Moreover, the entries for the “gelation by crosslinking with PEG-VS” value in data set [2] (PBS/NaOH buffer) and in data set [2] (TEOA buffer) were “could induce gelation” and “not”, respectively. For “GCRD-GPQG↓IWGQ-DRCG (GCRDGPQGIWGQDRCG; GCRD-GPQGIWGQ-DRCG) [peptide (5), spacer GCRD]”, the “cleavability” value in data set [1] is recorded as “could be digested by MMP-9”.

With GPRSLSGRRCG (GPRSLSGRRCG), the “specificity toward MMP-9 compared to cathepsin B and HNE” value in data set [3] is “good specificity toward MMP-9”. For `CCCCCCCCCCCCCC(=O)O[C@@H]1[C@@H](C)[C@@]2(O)[C@@H](C=C(CO)C[C@]3(O)C(=O)C(C)=C[C@@H]23)[C@@H]2C(C)(C)[C@]12OC(C)=O` [PMA, phorbol 12-myristate 13-acetate], in data set [4], the “MMP activity (fluorescent signal), difference 4 μg versus 0.4 μg of PMA” value came to 1.9 fold. Moreover, in data set [5], the “amount of MMP-9 secreted, difference 4 μg versus 0 μg PMA” value is on record as 10 fold and the “amount of MMP-9 secreted, difference 4 μg versus 0.4 μg PMA” value is recorded as 5 fold. With GRCR-GPRS↓LSG-RCRG [M2], the “preferential cleavage of peptide substrate by MMP-9” value in data set [6] is given as “preferentially cleaved”.

Take “GCRD-KGPRS↓LSGK-DRCG (GCRDKGPRSLSGKDRCG; GCRD-KGPRSLSGK-DRCG) [(7)]”: the “cleavability” value in data set [1] is given as “could be digested by MMP-9; also recorded: successful hydrogel cleavage by MMP-9”. Regarding `CC(C)Cc1ccc(C(C)C(=O)O)cc1` (stereo not drawn) [ibuprofen], the “relative metabolic activity of macrophages” value in data set [7] is reported as about 0%. Consider “GCRR-LGRM↓GLPGK-RRCG (GCRRLGRMGLPGKRRCG; GCRR-LGRMGLPGK-RRCG) [peptide (2), spacer GCRR, same substrate as peptide (6)]”, for which, in data set [1], the “cleavability” value was “not cleaved”. As for “GCRD-LGRM↓GLPGK-DRCG (GCRDLGRMGLPGKDRCG; GCRD-LGRMGLPGK-DRCG) [peptide (6), spacer GCRD, same substrate as peptide (2)]”, in data set [1], the “cleavability” value is given as “not cleaved”. As to GRCR-PMAV↓VQSVP-RCRG [H2], the “preferential cleavage of peptide substrate by HNE” value in data set [8] is given as “preferentially cleaved”. In the case of “GCRD-AVRW↓LLTA-DRCG (GCRDAVRWLLTADRCG; GCRD-AVRWLLTA-DRCG) [peptide (8)]”, the “gelation by crosslinking with PEG-VS” value in data set [2] (PBS/NaOH buffer) and in data set [2] (TEOA buffer) was “preventing gelation” in each case. On to “GCRR-KGPRSLSGK-RRCG (GCRRKGPRSLSGKRRCG; GCRR-KGPRSLSGK-RRCG) [peptide (1)]”, for which the “cleavability” value in data set [1] is given as “could be digested by MMP-9; also recorded: successful hydrogel cleavage by MMP-9”.
